Source: the nanobody polyreactivity screen of Harvey et al. (2022)

Assay: yeast display, Sf9 membrane polyspecificity reagent, FACS + sequencing; frameworks hold sequencing errors
In short: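 Galactose-induced (36–48 hours) yeast carrying a synthetic nanobody display library were exposed to 10% biotinylated, detergent-solubilized Sf9 membrane reagent at 4 °C for 1 hour. FACS followed streptavidin microbead enrichment, using low and high (top ~1%) gates for expression (anti-HA) and reagent binding (streptavidin). Colony PCR, MiSeq 2 × 250 sequencing and CDR-length filtering followed. Labels for polyreactivity reflect the gate of origin.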

Sequence	polyreactivity (PSR sort gate)
QVQVVESGAGLVQAGGSLRISCAASGRNFVANAMGWYRQAPGKERELVAAISIIGAGTYYADSVKGRFTISRDNAKITVYLQMNSLKPEDTAVYYCATQYGWYIFGYWGQGSQVTVSS	high polyreactivity
QVQVVESGGALVQAGGSLRLSCAASGRIFSPYAMGWYRQAPGKESELVAAITSASSTYYADSVKGRFTISRDNAKNTVYLEMNRLKPEDTAVYYCAASYWRYGSAFDYWGQGTQVTVSS	high polyreactivity
QVQVVESGGGILQAGGSLRLSCAASGSIFYTNAMGWYRQAPGKERELVAAINLRDTGTYYADSVKGRFTISRDNAKNTVYLQMNSLNPDDTAVYYCAVDVYSRRTRIRYDSWGHGTQVTVSS	low polyreactivity
QVQVVESGGGIVQAGGSLRLSCAASGFIFNGNAMGWYRQAPGKERELVAADSVKGRFTISRDNAKNSVYLQMNRLKPEDTAVYYCATEFWQASDYDYWGHGTQVTVSS	low polyreactivity
QVQVVESGGGLDNAGGSLGLSCAASGSIFYYNAMGWYRQAPGKERELVAAISSSGGSTYYADSVKGRFTISRDNAKNTVYLQMNSLKPEDTAVYYCAAKLRHWAHHTKYDYWGQGTQVTVSS	low polyreactivity
QVQVVESGGGLVQAGGSLRLICAASGSTSWSYAMGWYRQAPGKERELVAAITRTGSTNYADSVKGRFTISRDNAKNTVYLQMNSLKPEDTAVYYCVYATLRYDYWGQGTQVTVSS	low polyreactivity
QVQVVESGGGLVQAGGSLRLSCAASGFIFRTYTMGWYRQAPGKERELVAAISYRGSSTYYADSVKGRFTISRDNAKNTVYFLMNSLKPEDTADYYCAAQLYGHRGYYWGQGTQVTVSS	high polyreactivity
QVQVVESGGGLVQAGGSLRLSCAASGFIIKDNAMGWYRQAPGKERELVAAITASGGRTYYADSVKGRFTISRDNAKNTVYLQMNSLKPEDTAVYYCAKRVKRPSESYNYNYYYWGQGTQVTVSS	high polyreactivity
QVQVVESGGGLVQAGGSLRLSCAASGRIYQYYDMGWYRQAPGKERELVATITSGGSTNYADSVKGRFTISRDNAKNTVYLQMNSLKPEDTAVYYCAALAYTASDYQPYDATEYNYWGQGTQVTVSS	low polyreactivity
QVQVVESGGGLVQAGGSLRLSCAASGRTFTRYAMGWYRQAPGKERELVATITRGGSTNYADSVKGRFTISRDNAKNTVYLQMNSLKPEDTAVYYCAAGYFIRTRSRYRYDYWGQGTQVTVSS	high polyreactivity
QVQVVESGGGLVQAGGSLRLSCAASGSFFTRYAIGWYRQAPGKERELVAAISGSGGSTYYADSVKGLFTISRDNAKITVSLQMNSLKPEDTAVYYCAARDYWGQGTQVTVSS	high polyreactivity
QVQVVESGGGLVQAGGSLRLSCAASGSIFGGYTMGWYRQAHGNERELVAGITISGGSTYYADSVKGRFTISRDTAKNTVYLQMNSLKPEDTAVYYCAAVSFVVSSWGYGYWGQGTQVTVSS	low polyreactivity
QVQVVESGGGLVQAGGSLRLSCAASGSIFHAYTMGWSRQAPGKERELVAAISRGDRTYYADSVKGRFTISRDNAKNTVSLQMNSLKPEDTAVYYCNRDRYRYDSWGQGTQLTVSS	high polyreactivity
QVQVVESGGGLVQAGGSLRLSCAASGSIFNQYAMGWHRQAPGKERELVAAISSDGGRTYYADSVKGRFTISRDNAKNTVYLQMNSLKPEDTAVYYCNADFPAYGLQGDDYWGQGTQVTVSS	low polyreactivity
QVQVVESGGGLVQAGGSLRLSCAASGSIIYYYAMGWYRQAPGKERELVARISWNGGSTYYADSVKGRFTISRDNAKNTVYLQMNSLKPEDNAVYYCAARPWHHYYWGQGTQVTVSS	high polyreactivity
QVQVVESGGGLVQAGGSLRLSCAASGSTFSIYAMGCYRQAPGKERELVAAISSSGGSTYYADSVKGRFTISRDNGKNTVYLQMNSLKPEDTAVYYCNKRKYHVRYDYWGQGTQVTVSS	low polyreactivity
QVQVVESGGGLVQAGGSLRLSCAASGSTFVLNAMGWYRQAPGKERELVAAITYGGSTYYADSVKGRFTISRDNAKNTVYLQMNSLKPEDTAVYYCAVTYNGDSSWPGDYWGQGTQVTVSS	low polyreactivity
QVQVVESGGGLVQAGGSLRLSCAASGSTFWWYAMGWYRQAPGKERELVAAITSGGSTNYADSVKGRFTISRDNAKNTVYLQMNSLKPEVTAFYYCAKVPRPLVYYIRLGYWGQGTQVTVSS	high polyreactivity
QVQVVESGGGLVQAGGSLRLSCAASGWYNAMGWYRQAPGKERELVAAISWDGDSTYYADSVKGRFTISRENAKNTVYLQMNSLKPEDTAVYYCAATQSTGRGRYYYWGKGTQVTVSS	high polyreactivity

Sequence	polyreactivity (PSR sort gate)
QVQVVESGGGLVQAGGSLRLSCASSGRTFGIYAMGWYRPAPGKESEWVASISWSGGRTYYADSVKGRFTISRDNAKNTVYLVMISLKPEDTAVYFCAARWYYVTPLRRYGYWGQGTQVTVSS	high polyreactivity
QVQVVESGGGLVQAGGSLRVICAASGSTFYRNAMGWYRQAPGKEWELVAAITRSASSTYYADSVKGRFTISRDNAKNNVDLQLNSLKPEDTAVYYCAAKRRVSHLDYWGQGTQVNVSS	high polyreactivity
QVQVVESGGGLVQPGCSLRLSCAASGNIFVYNDMGWYRQAPGKERELVAAIDSGGSTYYADSVKGRFTISRDNAKNNVYLKMNSLKQEDTAVYYCAADYYCTYRTIYYYWGQGTQVTVSS	low polyreactivity
QVQVVESGVGLVQSGGSLRLSYAASGSIFIPYPMGWYRQAPGKERELVAAISSSGSTYYADSVKGRFTISRDNAKNTFYLQMNSLKPEDTAVYYCAAERHYSYSSYDDWGQGTQVTVSS	low polyreactivity
QVRLVESGGGLVQAGGSLRLRCAASGSTFYTYAMGRYRQAPGKERELVAAITFIDGSTYYADSVKGRFTISRDNANNTVYLQMNSLKPEDTAVYYCAAASRGWGYPLYYSTDEYWGHGTQVTVSS	low polyreactivity
QVRLVESGGGLVQAGGSLRLSCAASGRIFASYAMGWNRQAPGKETELVAAISKSGGRTYYADSVKGGFTISRDNAKNTVYLQMNSLKPEDTAVYYCAAYFWTRSGTPNYDYWGQGTQVTVSS	high polyreactivity
QVRLVESGGGLVQAGGSLRLSCAASGSIFAPYAMGWYRQAPGKERELVATIRTTGDSTYYADSVKGRFTISRDNAKNTVYLQMNSLKPEDTAVYYCAKSEPLVVGVSPWYQVDYCGQGTQVTVSS	low polyreactivity
QVRLVESGGGLVQAGGSLRLSCAASGSILDINAMGWYRQAPGKERELVASISWTGGHTYYADSVKGRFTISRDNAKNTVYLQMNSLKPEDTAVYDCAATHQETVYYFLSIFDYWGQGTQVTVSS	low polyreactivity
QVRLVESGGGLVQAGGSLRLSCAASGSILYRYTMGWYRQAPGKETELVAAITWSDGSTYYSDSVKGRFTISRDNAKNTVYLQKNSLKPEDTAVYDCAADLWLDVDHEWSGGDYWGQGTQVTVSS	low polyreactivity
QVRLVETGGGLVQAGGSLRLSCAASGSIFLIYDMGWYRQAPGKEMELVAAISNSVGSTYADSVKGRFTMSRDNAKNTVYLQMNSLKPEDTAVYYCNADYGPIDGRGGYWGQGTQVTVSS	low polyreactivity
QVRRVESGGGLVQAGGSLRLSCAASGSTFPWYAMGWYRQAPGTERELVASITSGTTTNYADSVKGRFTISRDNAKNTVYLEMNSLKPEDTAVYYCAASWVYPYDYWGQGTQVTVSS	low polyreactivity
QYQLVESVGGLDQAGGTLRLSCAASARIFSYYAMGWYRQAPGKERELVATISYSGGSTYYADSVKGRFTISRDKAKNTVYLQMNSLKPEDSAVYYCAATRYPYFSFVRFPSRRFNYWGQGTQVTVSS	high polyreactivity
RLVQAGGSLRLSCAASGRIFGTYAMGWYRQAPGKERELVAAITQSGGRTYYADSVKGRFTISRDNAKNSVYLQMNSLKPEDTAVYYCNKVTYRGIGLGYDYWGQGTQVTVSS	high polyreactivity
RVQLGESGGGLVQAGGSLRLSCAASGRTFVRYAMGWYRQAPGKERELVAAISYRGASTFYADSVKGRFTISRDNAKNTVYLQMNSLNPEDTAVYSCATDPRIRYQGNPYDYWGQGTQVTVSS	high polyreactivity
RVQLVESGGGLVQAGGRLRLSCAASRFTFIVNPMGWYRQAPGKERELVAAISWNGGSTYYADSVKGRFTISRDNAKNTVYLQMNSLKPEDTAVYYCAVLYRSEYDWGQGTQVTVSS	low polyreactivity
RVQLVESGGGLVQAGGSLRLSCAASGGTFPVYAMGWYRQAPGKEWELVAAISYSGVTTYYADSVKGRFTISRDNAKNTVYLQMNSLKPEDTAVYYCNADWRRWYIFSYDYWGQGTQVTVSS	low polyreactivity
RVQLVESGGGLVQAGGSLRLSCAASGITFGRNAMGWYRQAPGKERELVAAISRGGSTNYADSVKGRFTISRDNAKNTVYLQMNSLKPEDTAVYYCNARSFGPTESRYDYWGQGTQVTVSS	high polyreactivity
RVQLVESGGGLVQAGGSLRLSCAASGSTISRYAMGWYRQAPGKERELVASISRSGTSTYYADSVKGRFTISRDNAKNTVYLQMNSLKPEDTAVYYCNKRWATSIQYRYNYWGQGTQVTVSS	high polyreactivity
TYRGTTTYYADSVKGRFPIARDYAKNTVYLQMHSLKPEETAVYNWTRYYPSEYDYWGQGTHVTVSS	high polyreactivity
